# Where a chain is given by its changes, count along the chain named.
# B1: mAb10956 (antibody, V domains shown)
# VH: EVQLVESGGGLVQPGGSLRLSCAASGLTVSSNYMSWVRQAPGKGLEWVSVIYSGGSTFYADSVKGRFTISRDNSKNTLYLQMNSLRAEDTAVYYCARDLIKYGMDVWGQGTTVTVSS
# VL: not shown
# B2: mAb10957 (antibody, V domains shown)
# VH: B1 VH with L27V, Y79F, A87I, I100G, K101P
# VL: DIQLTQSPSFLSASVGDRVTITCRASQGISSYLAWYQQKPGKAPKLLIYAASTLQSGVPSRFSGSGSGTQFILTISSLQPEDFATYYCQQLNSYPGFTFGPGTKVDIKR
# Biological target: SARS-COV-2 RBD extracellular domain expressed with a C-terminal mouse IgG2a (SARS-CoV-2)
Binder,Kd [nM],t½ [h]
B1,0.395,1.3
B2,≤ 0.0279,≥ 19.2
